Assay results from US20080317769A1, “Vaccine Composition Comprising Alpha-Galactosylceramide as an Adjuvant For Intranasal Administration” (priority 2005, published 2008).

Test system: EG7 tumor cells
Assay: EG7 tumor challenge after intranasal immunization with OVA and αGalCer
Assay type: in vivo
Details: C57BL/6 mice
Protocol: To confirm whether αGalCer could be used as a nasal vaccine adjuvant inducing anticancer activity, C57BL/6 mice were immunized with 100 μg of OVA alone or together with αGalCer (0.125, 0.5, 2.0 μg) by the intranasal administration three times at one-week intervals. Two weeks after the final immunization, 3×10^6 EG7 tumor cells were subcutaneously inoculated in the left flank of the immunized mice. On the 14th day of the inoculation, the mice were sacrificed and the palpable tumors were weighed.

B1: OVA: model antigen given intranasally at 100 μg alone or together with αGalCer (protein, UniProt P01012 2-386, looked up)
Ovalbumin: GSIGAASMEFCFDVFKELKVHHANENIFYCPIAIMSALAMVYLGAKDSTRTQINKVVRFDKLPGFGDSIEAQCGTSVNVHSSLRDILNQITKPNDVYSFSLASRLYAEERYPILPEYLQCVKELYRGGLEPINFQTAADQARELINSWVESQTNGIIRNVLQPSSVDSQTAMVLVNAIVFKGLWEKAFKDEDTQAMPFRVTEQESKPVQMMYQIGLFRVASMASEKMKILELPFASGTMSMLVLLPDEVSGLEQLESIINFEKLTEWTSSNVMEERKIKVYLPRMKMEEKYNLTSVLMAMGITDVFSSSANLSGISSAESLKISQAVHAAHAEINEAGREVVGSAEAGVDAASVSEEFRADHPFLFCIKHIATNAVLFFGRCVSP
- mice with tumor masses (100 μg OVA alone intranasal, 3×10^6 EG7 cells s.c., day 14): all mice
- tumor weight compared with vehicle alone (OVA alone through the nasal cavity, p<0.05): significantly heavy
